Assay results taken from the nanobody polyreactivity screen of Harvey et al. (2022).

test: yeast display, Sf9 membrane polyspecificity reagent, FACS + sequencing; frameworks hold sequencing errors
How it was run: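 Genes from sorted yeast were amplified by colony PCR, read by MiSeq 2 × 250 sequencing and filtered on CDR length. These cells carried a synthetic nanobody library in Saccharomyces cerevisiae BJ5465 and were sorted by FACS into low and high (top ~1%) gates on anti-HA and streptavidin fluorescence. Polyreactivity is labelled according to the gate of origin.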

Row | Sequence | polyreactivity (PSR sort gate)
1 | QVQLVESGGGLVQAGGSLRLSCAASGRTFRWYAMGWYRQAPGKERELVASITWSGGSTYYADSVKGRFTISRDNAKNTVYLQMNSLKPEDTAVYYCAARDRRGAYYYWGQGTQVTVSS | high polyreactivity
2 | QVQLVESGGGLVQAGGSLRLSCAASGIIFDINAMGWYRQAPGKERELVAAITTSVDSTYYADSVKGRFTISRDNAKNTVYLQMNSLKPEDTAVYYCAVAFVQFTQYYYWGQGSQVTVSS | low polyreactivity
3 | QVQLVESGGGLVQAGGSLRLSCAASGSTFRRYAMGWYRQAPGKEREMVAGITYGSTYYADSVKGRFTISRDNAKNTVYLLMNSLKPEDTAVYYCAADLSYTSVHGYRSDTLMDYWGQGTQVTVSS | low polyreactivity
4 | QVQLVESGGGIVQAGGSLRISCAASGFIFSSYDMGWYRQAPGKERELVAAITWSGGSTYYADSVKARFTISRDNAKNTVYLHMNSLKPEDTAVYYCNAYPYYLVRNMDSWGQGTQVTVSS | high polyreactivity
5 | QVQLVESGGGLVQAGGSLRLSCAASGSTFRGYDMGWYRQAPGKERELVAAITTSGGTTYYADSVKGRFTISRDNAKNTVYLQMNSLKPEDTAVYYCAARYPRAGVPRRPTAYVRYGYWGQGTQVTVSS | high polyreactivity
6 | QVQLVESGGGLVQAGGSLRLSCAASGLTFRVNAMGWYRQAPGKERELVAVISTDGGTTYYADSVKGRFTISRDNAKNTVYLQINSLKPEDTAVYYCAAKYAQVYIWVRQIHFDYWGQGTQVTVSS | low polyreactivity
7 | QVQLVESGGGLVQAGGSLRLSCAASGRIFYYYAMGWYRQAPGKEREFVADISARGGSTYYADSVKGRFTISRDNAKKTVYLEMNSLKPEDTAVYYCAATTGLYTRYGYWGQGTQVTVSS | high polyreactivity
8 | QVQLVESGGGLVQAGASLRLSCAASGSTFARYAMGWYRQAPGKERELVAAISSSGRTYYADSVKGRFTISRDNAKNSVYLQMNSLKPEDTAVYYCNAPVARGEASYYWGQGTQVTVSS | high polyreactivity
9 | QVQLVDSGGGLVQAVGSLRLSCAASGRTFRRYAMGWYRQAPGKERELVAAISRSGGSTYYADSVNGRFTISRDNAKNTVYLQMNSLKPEDTAVYYCAAGIWSKLVEPFDYCGQGTQVTVSS | high polyreactivity
10 | QDQHVESGGGLVQAGGSLRLSCSASGRTFDYYAMGWYRQAPGKERELVAAINSGGNTYYADSVKGRFTISRDNAKNTVYLQMNSLKPEDTAVYYCAAYYRDKLSGYNYWGQGTQVTVSS | high polyreactivity
11 | QVQLVESGGGLVQAGGSLRLSCAASGSIFTPYAMGWYRQAPGKERELVATISARGGSTYYADSVKGRFTISRDNAKNTVYLQMNSLKPEDTAVYYCNVDYAQRVFLYDYWGQGTQVTVSS | low polyreactivity
12 | QVRLVESGGGLDQAGGSLRLSSAASGRIFNRNAMGWYRQAPGKARELVAAINRGGSTNYADSVKGRFTISRDNAKNTVYLQLNRLKPEDTAVYYCAAELLYATLWRRYSGYYYWGQGTQVTVSS | high polyreactivity
13 | QVQLVESGGGLVQAGVSLRLSCAASGFTIKLYAMGWYRQAPGKERELVAAISSSGGSTYYADSVKGRFTISRDNAKNTVYLQMISLKPEDTAVYYCAARTRHVHYGYWGQGTQVTVSS | high polyreactivity
14 | QVQLVESGGGLVQAGGSLRLSCAASGRIFASYTMGWYRQAPGKETELVAAISWRGDGTYYADSVKGRFTISRDYAKNTVYLQMNSLKPEDTAVYYCAADYVYYYHEYDYWGQGTQVTVSS | low polyreactivity
15 | QVQLVESGGGVDQAGGSLRLSCAASGLSLRVNVMGWYRPAPGKERELVAAISGGGRTYYADSVKGRFTISRDNAKNTVYLQMNSLKPEDTAVYYCATVRRRLSLTYDYWGQGTQVTVSS | high polyreactivity
16 | QVQLVESGGGLVQAGGSLRLSCAASGIIFGHYALGWYRQAPGKERELVAAITASSGNTYYADSVKGRFTISRDNAKNTVYLQMNSLKPEDTAVYYCAAVSYSSYRYDSWGQGTQVTVSS | high polyreactivity
17 | QVQLVESGGGLVQAGGSLRLSCAASGITFVRYAMGWYRQAPGKERELVAAIRQNGGDTYYADSVKRRFTISRDNAKNTDYLQMNSLKPEDTAVYYCNARMRGAGGYTYYYWGQGTQVTVSS | high polyreactivity
18 | QVQLVESGGGLVQAGGSLRLSCASSGSIFAFNTLGWYRQAPGKERELVAAINSGGSTYYADSVKGRFTISRDNAKNTVYLQMNSLKPEDTAVYYCNARSYGIVVEYDYWGQGTQVTVSS | low polyreactivity
19 | QVQLVESGGGLVQAGGSLRLSCAASGRTLFGYAMGWYRQAPGKERELVAAITYGATSTYAHSVKGRFTISRDNAKNTVYLQMNSLKPEDTAVYYCNAYTPTDGFDYWGQGTQVTVSS | low polyreactivity
20 | QVQLVESGGGLVQAGVSLRLSCAASGRIFHFYAMGCYRQAPGKERELVASITWRGGRTYYADSVKARFTISRDNAKNTVFLQMNSLKPEDTAVYYCAADFRSGFSSSTTPVQSDWGQGTQVTVSS | low polyreactivity
21 | QVQLVESGGGLVQAGGSLRLSCAASGRIFRYYAMGWYRQAPGKERELVAAISRSGSTNYADSVKGRFTISRDNAKNTVYLQMNSLKPEDTAVYYCAADSNYLYFWRRYKRMDYWGQGTQVTVSS | high polyreactivity

Row | Sequence | polyreactivity (PSR sort gate)
22 | QVQLVESGGGLVQAGGSLRLSCAASGITFWSYAMGWYRQAPGKERELVAAISRGGDSTYYADSVKGRFTISRDNAKNTVYLQMNSLKPEDTAVYYCAALRKREEYYWGQGTQVTVSS | high polyreactivity
23 | QVQLVESGGGLVQAGGRLRLSCAASGITYEPYAMGWYRQAPGKERELVAAISRSGGSTYYADSVKGRFTISRDNAKNTVYLQMNSLKPVDTAVYYCNALRGTASRRGYYWGQGTQVTVSS | high polyreactivity
24 | QVHLAESAAGLDQAGGRLRLSCAAYGIIFYYYAMGWYRQAPGKERELVAAISGTGGRTYYADSVKGRFTISRDNAKNTVYLQMNSLKPEDTAVYYCNADDTPVPSIRFDSWGQGTQVTVSS | low polyreactivity
25 | QVQLVESGGGLVQAGGSLRLRCAASGIIIYDYAMGWYRQAPGKERELVAAISSTAVGTYYADSVKGRFTISRDNAKNTVYLQMNSLKPVDTAVYYCAAAVSPHSEGFGEYNYWGQGTQVTVSS | low polyreactivity
26 | QVQLVESGAGLVQAGGSLLLSCAASAFIFTPYTKGWYRQAPGKETELVAAITDGSSTYYADSVKRRFTISRDNAQNTVYVQMNSLKPEDTAVYYCNADTLTTTRRFNPYDYRGQGTQVTVSS | low polyreactivity
27 | QVQLVESGGGLVQAGGSLRLSCAASGSIFGRNAMGWYRQAPGKERELVAVISKRSGNTYYADSVKGRFTISRDNAKNTVYLQMNSLKPEDTAVYYCNAVDQKLLRYDYGGQGTQVTVSS | high polyreactivity
28 | QVQLVESGGGLVQAGGSLRLTCDASGSTFYIYAMGWYRQAPGKERELVARISGSCGSTYYADSVKGRFTISRDNAKNTVYLQMNSLKPEETAVYDCASDDIYKNYQYYAFPYYRYDYWGQGTQVTVSS | low polyreactivity
29 | QVQLVESGGGLVQAGCSLRLSCAASGRISKRYTMGWYRQAPGKERELVAAINSSTSTSYADSVKGRFTISRDNAKNTVYLKMNSRKPEDTAVYYCNARYNYSYDYNYWGQGTQVTVSS | low polyreactivity
30 | QVQLVESGGGLVQAGGSLRLSCAASGSTFYYYVMGWYRQAPGKERELVAAISSGGHTNYADSVKGRFTISRDNAKNTVYLQMNSLKPEDTAVYYCAAKPWRGTLLRYGYWGQGTQVTVSS | high polyreactivity
31 | QVQLVESGGGLVQAGGSLRLSCAASGSIIKSYAMGWYRQAPGKGRELVAAISSGGSTNYADSVKGRFTISRDNAKNTVYLQMNSLKPEDTAVYYCAARFRVDHRPYYYWGQGTQVTVSS | low polyreactivity
32 | QVQLVESGGGLVQAGGSLRLSCAASGRTFGTNTKGWSRQAPGKERELVAAISSRGGTTYYADSVKGRFTISRDNAKNTVYLQMYSLKPEDTAVYYCNRARSSSRYDYWGQGTQVTVSS | low polyreactivity
33 | QVQLVESGGGLVQAGGSLRLSCAASGSNVHYMGGERQAPGKERELVAGISWSGGSTYYADSVMGRFTISRDNAKNTVYLQMNSLKPEDTAVDYCAADYYAHQDYRFDYWGQGTQVTVSS | low polyreactivity
34 | QVQHVESGGGLVQAGGSLRLSCAATGTTFDTYAMGWNRQATGKERELVAAINSGGGTNYADSVKGRFTIARDNAKNTVYLQMNSLKPEVTAVYYCATDIRRDAGGGDFDYWGQGTQVTVSS | low polyreactivity
35 | QLQLVESGGGLVQAGGSLRLSCAASGRTFFRYVMGWYRQAPGKERELVAAISTRGGSTYYADSVKGRFTISRDNAKNTVYLQMNSLKPEDTAVYYCAARFKVRDYSYNYWGQGTQVTVSS | high polyreactivity
36 | QVQLVESGGGLVQAGGSLRLSSAASGRTFRYYTMGWYRQAPGKEREFVAAISSTGGTYYADSVKGRFTISRDNAKNNVYLQMNSLKPEVTAVYYCAATFIQVVVNVELYDYDYWGQGTQVTVSS | low polyreactivity
37 | QVQLVESGGGLVQAGGSLRLSCAASGSIFWNNAMGWSRQAPGKERELVAAISKSGTRTYYADSVKGRFTISRDNAKNTVYLQMNSLKPEDTAVYYCNALLRDSGTYAGDDYWGQGTQVTVSS | high polyreactivity
38 | QVQLVESGGGLVQAGGSLRISCAASGRIFLGNAMGWYRQAPGKERELVAAITNGGGSTYYADSVKGRFTISRDNAKNTVYLQMNSLKPEDTAVYYCARGYKKSVQRFEYWGQGTQVTVSS | high polyreactivity
39 | QVQLVESGGGLVQAGGSLSLSCAASGSIFGDYVLGWYRQAPGKERELVAAINRGGSTYYADSVKGRFTISRDNAKNTVYLQMNSLKPEDTAVYYCAAGYPSWYYGYPYDSWGLGTQVTVSS | low polyreactivity
40 | QVQLVESGGGIVQAGGSLRLSCAASGRIFGYYAMGWYRQAPGKERELVARISSSGGSTYYADSVKGRFTISRDNAKNTVYVQMNSLKPEDTAVDYCNTASNRYPGWRAEFDYWGQGTQVTVSS | low polyreactivity
41 | QVQLVESGGGLVQAGGSLRLSCAASGSTIHYYAMGWYRQAPGKERELVAAISSSGVSTYYADSVKGRFTISRDNAKNTVYLQMNSLKPEDTAVYYCNRASVFHYRWYYYGGQGTQVTVSS | high polyreactivity
